The target of this data set is T1, Tetrapeptide Lys substrate L-Ala-γ-D-Glu-L-Lys-D-Ala.
T1 chain: AEKA

Where two headings read alike, the source gives them in different places.

B1: P. aeruginosa L-D carboxypeptidase A (PA LDC), N-terminal his-tagged, expressed from pET14b in E. coli BL21 (protein)
chain: MTSRPSSDQTWQPIDGRVALIAPASAIATDVLEATLRQLEVHGVDYHLGRHVEARYRYLAGTVEQRLEDLHNAFDMPDITAVWCLRGGYGCGQLLPGLDWGRLQAASPRPLIGFSDISVLLSAFHRHGLPAIHGPVATGLGLSPLSAPREQQERLASLASVSRLLAGIDHELPVQHLGGHKQRVEGALIGGNLTALACMAGTLGGLHAPAGSILVLEDVGEPYYRLERSLWQLLESIDARQLGAICLGSFTDCPRKEVAHSLERIFGEYAAAIEVPLYHHLPSGHGAQNRAWPYGKTAVLEGNRLRW
With B1, the “cleavage of tetrapeptide substrate” value was “express a functional PA LDC protein that cleaved a tetrapeptide substrate in a dose dependent manner”. Besides, for the setting “scale: fold lower specific activity compared to E. coli LDC”, the cleavage of tetrapeptide substrate (RFU, Amplex Red detection of D-alanine released) was 2.

B2: E. coli LDC protein (muramoyl-tetrapeptide carboxypeptidase P76008) (protein)
chain: MSLFHLIAPSGYCIKQHAALRGIQRLTDAGHQVNNVEVIARRCERFAGTETERLEDLNSLARLTTPNTIVLAVRGGYGASRLLADIDWQALVARQQHDPLLICGHSDFTAIQCGLLAHGNVITFSGPMLVANFGADELNAFTEHHFWLALRNETFTIEWQGEGPTCRAEGTLWGGNLAMLISLIGTPWMPKIENGILVLEDINEHPFRVERMLLQLYHAGILPRQKAIILGSFSGSTPNDYDAGYNLESVYAFLRSRLSIPLITGLDFGHEQRTVTLPLGAHAILNNTREGTQLTISGHPVLKM
B2: the “cleavage of tetrapeptide substrate (RFU, Amplex Red detection of D-alanine released)” value is listed as “illustrates the cleavage of a tetrapeptide substrate (L-Ala-γ-D-Glu-L-Lys-D-Ala) by E. coli LDC (squares)”.

(Values after US20070212705.)
